The values below come from the supplement of paper PMC12042874.

This data set can be described thus: amyloid nucleation score (Sup35N fusion, yeast selection) (log enrichment); library NNK2; higher = more nucleation; inactive = no reads after selection. A digest of the protocol:
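On medium lacking adenine and uracil, psi-negative yeast expressing peptides of 20 random codons fused to Sup35N were grown 7 days at 30°C after a 24-hour induction with 100 μM copper sulfate. Illumina sequencing of input and output plasmid inserts gave the reads, and sequences under 100 input reads were excluded. The nucleation score is the DiMSum log enrichment of output over input reads, centred on the mode score of non-aggregating sequences.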

± gives the uncertainty stated by the source.

ITTHMCYVFMWREIRAKDVD: the amyloid nucleation score was found to be 0.484 ± 0.8.
In the case of TLHWK it was -0.667 ± 0.33; in that of MATSMNQHGVRMVWSSRLGS, 4.57 ± 0.051.
With LTDVYMVI the figure was -0.395 ± 0.76; with SILFFKGGLRRSLEHLACTA, 0.635 ± 0.52.
In the case of FVCTDCLF it was -1.35 ± 0.48; in that of LHNDLLKVNSERENNNDLGS, 0.089 ± 0.5.
SRMLYVQIWREYVNSWKTSS: the amyloid nucleation score is -0.356 ± 0.38.
Take PFHPICVYKRPFLCPE: the amyloid nucleation score result was “inactive”.
In the case of SNVDVFVTKMWRATQSCFRL it was 3.67 ± 0.12; in that of DGVSVPSCRLKRKAVIAGWL, 0.662 ± 0.4; in that of TGGGATLRRILRHLSVGSDR, -0.005 ± 0.79.
The substance CVSEARRIE yielded an amyloid nucleation score of -0.36 ± 0.35.
With VTICIGVAFYVFCTSTSNCM the figure was 5.242 ± 0.039; with TEGHVNSQIRWNLVY, -0.348 ± 0.36.
With TVLFKGLRYRRNFKFGTQTT the figure was -0.056 ± 0.76; with FQSDLMINIK, -0.496 ± 0.56.
On to MDNNVNNRSPFLICRMMDNI, for which the amyloid nucleation score result is “inactive”.
In the case of NFGIKWIVFLKL it was -0.861 ± 0.28; in that of SCSIPELNNEGIKVCFMNTE, 1.27 ± 0.13.
In the case of HGTIFTIYVC it was -0.875 ± 0.42; in that of GFICPFVQLCVFRSRHRFEV, 0.676 ± 0.8.
In the case of RGVLTSSLFPSKGRWVVGHW it was 2.35 ± 0.075; in that of FIYQFHVVFLVCQGHNNLYT, 3.6 ± 0.071; in that of NIPAYTSMTFVLWTIL, -0.153 ± 0.37.
Substance RNLDFIA yielded an amyloid nucleation score of 3.33 ± 0.068.
In the case of TCNSGRYSRAACAWWN it was -0.114 ± 0.45.
In the case of LPYYKHCNRLTNVTCLYKRR it was 3.34 ± 0.15; in that of LSHKAEYLCVFSWACRIMGL, 0.155 ± 0.42.
RLKGGFVEGPSGRVTCVRIT displayed an amyloid nucleation score of 0.132 ± 0.38.
In the case of QEYLLLVAAGKHVNVDKTYL it was 0.594 ± 0.81; in that of PWACIIYRLQGSPLINSRFN, 1.04 ± 0.12; in that of VRIYTHWTRSYRPKFRSTWT, 0.641 ± 0.74.
With SKDMCRRCCIRNLRRMSDSN the figure was -0.443 ± 0.26; with SCEVVSRKL, 1.08 ± 0.22.
With ESILKHSMPSYGFFLF the entry was “inactive”; with IKCRVITQSCIPSSINRLDG, -0.114 ± 1.1; with QLICTMNFVAEYNWSALRRN, 4.55 ± 0.12.
For the substance GRYVNCGRSLRICSINLTKI, the amyloid nucleation score is -1.31 ± 0.55.
With RSRSYHADWACTVVCLCYS the figure was 4.24 ± 0.066; with LFVLVREVNVLTFLCPSEDQ, 8.52 ± 0.066; with LHSYVFTKGSRTQCRWRKNP, 0.07 ± 0.28.
With QFVNQRSYKGSLTFFMIRGR the entry was “inactive”.
With EFANWFVGYNQGSLGHALKQ the figure was 0.355 ± 0.42; with VCDVLYKFGYSKN, 4.89 ± 0.058; with TYKEYCGE, -0.693 ± 0.78.
Take VNVDWCLLSVLVFNLETNPR: the amyloid nucleation score is 6.699 ± 0.032.
With LICGARYINFSGKGNY the figure was 0.023 ± 0.29.
With KLPAVNLVVMREWKALRFGV the figure was -0.48 ± 0.33; with HRVSMKEGVEC, 0.256 ± 0.31; with SLFVITYRPAYSSDFILNGG, 0.763 ± 0.43.
ARNSVKHSFFQVRRLHGSWD displayed an amyloid nucleation score of 0.367 ± 0.38.
Take KGKDS: the amyloid nucleation score was -0.037 ± 0.39.
In the case of SMRCLIMCATDCRNDMGRLW it was 5.362 ± 0.039.
In the case of HRDKLKVSPQITRSSFRRLS it was 0.423 ± 0.26; in that of TSVCM, 3.89 ± 0.1; in that of NWSVTGCQLRGGRTEGNGIR, 0.122 ± 0.5.
With FFWYWYASYEHARTSYSIRV the entry was “inactive”; with DFTRYYFYIPHRRVHTVH, -0.763 ± 0.4.
In turn, LYVVVRLISCYYGAFPSWNR yielded an amyloid nucleation score of -0.316 ± 0.26.
Substance VETYT yielded an amyloid nucleation score of 0.022 ± 0.65.
With VGVLSEDIYCSAQPYLGRSG the figure was 0.331 ± 0.4.
With LSCWAYHVSWGWWHYIFAW the figure was 1.11 ± 0.38.
With AILKWSLICMMGRDWYSQWF the figure was 6.317 ± 0.037; with LSLVNGLRDVFTSGWALRCW, 4.89 ± 0.05; with GLWVSHEVCIGCVF, “inactive”.
Substance AMGNKREKVL had an amyloid nucleation score of 0.601 ± 0.44.
FLGYIKSLCMYYRRSGMINA yielded an amyloid nucleation score of -2.17 ± 0.62.
In the case of KVGERISPELSGMFYGTLWY it was -0.305 ± 0.74; in that of NSMTQFCIQCGGTTIAWSMF, 6.663 ± 0.039.
In the case of LLCQITRVAIPCHVCGDDVA it was 3.81 ± 0.13.
In the case of DLSDIDRCGRLVNRESILLR it was 1.45 ± 0.5.
CILYKEACEIVIFPGFTVAN registered an amyloid nucleation score of -1.15 ± 1.
In the case of RLFTWIFPTGNTGF it was 8.831 ± 0.074; in that of STNRWQHIL, -0.382 ± 0.48; in that of QGVSVLFGVSATLY, 1.19 ± 0.26.
In the case of ICAGISKKSGGTWSRARVCS it was “inactive”.
The substance IRNILWVLPKVVSDAFI showed an amyloid nucleation score of 0.325 ± 0.57.
With FGLYRVRGRSEYRVDHTGWG, the amyloid nucleation score came to 0.534 ± 0.51.
In the case of SNCRQSPYNNQVI it was 0.155 ± 1.1; in that of AAFRSTFDCTTVVLRSPSVS, -0.345 ± 0.33.
In the case of KLVTYVPSNKTNCHDDDGTY it was -0.678 ± 0.56; in that of RESWLAGMSVYWANSGMSFA, -0.487 ± 0.36; in that of GYSYTLRDRCESRLTLRSDV, 0.382 ± 0.37.
With TWRLACRFLL the figure was -0.12 ± 0.56; with TASHTWSVVCFTWYRCLVND, 4.98 ± 0.051; with FDGRETQENGNSYMCEGW, 0.419 ± 0.5.
LNYRCAWWMLATMMLKRLSC returned an amyloid nucleation score of 2.15 ± 0.31.
With IGTLSRNERASRNTHWDILT the figure was 0.757 ± 0.47.
In the case of YSKNWYWCTDYARANTLYHG it was -1.14 ± 1.1.
With KLGRCRRKFMLYGCNLVQSR the figure was -0.133 ± 0.33.
The substance QYYRN gave an amyloid nucleation score of 1.51 ± 0.58.
Substance TSCHRLWLLFMCIAGG had an amyloid nucleation score of -0.199 ± 0.79.
In the case of KASHSVTRSLSVAYI it was -0.714 ± 0.38; in that of AQLRKMSSVNYV, -0.825 ± 1.1; in that of VRISAMVITV, -0.684 ± 0.55.
SMDRIQEGLHRQLVFDVSE registered an amyloid nucleation score of 0.624 ± 0.35.
With VLVSGYDLVVVDRVYLGRMF the figure was 2.56 ± 0.085; with TRSDMLVLLCIIMCFSYSYP, 6.31 ± 0.09.
In the case of GVTVKGAVIFYRY it was 6.47 ± 0.074; in that of NNKTKPVVFILSMYNYERFS, 2.12 ± 0.25; in that of RSMISRAIYWQSWSTREERT, 1.86 ± 0.093.
With TSPSYVTSCYRFVKEIDHWK the figure was -1.29 ± 1.1; with SFSDVLNSGVRCF, 0.234 ± 0.35; with SDLWSIPFFGFGDPPMGFFR, “inactive”.
For CCIRSLWLNLVLTNASGPSL, the amyloid nucleation score came to 4.39 ± 0.049.
With MSFFYDMEEWRMCLRLARYR the figure was 3.82 ± 0.07.
In the case of KSTLANHFTVLIGDTADLHG, the amyloid nucleation score entry is “inactive”.
With SLPIVEDITGYPLRSHWG the figure was 0.172 ± 0.27.
PLQPTQTYPFNSVFDGHKRV: the amyloid nucleation score entry is “inactive”.
With SRLISTHTAT the entry was “inactive”.
Turning to FKLFMLSSFSLMM, the amyloid nucleation score amounted to 0.182 ± 1.1.
With RIFITIRIINPPKDFFIRCY the entry was “inactive”; with RVSMFKDLKYNGSYSWNSHG, -1.22 ± 0.41; with VLNEDVRGKANTVVSSMG, 0.413 ± 0.24.
In the case of RYGAMKLDTSKS it was 0.11 ± 0.25; in that of PQRLWISISAHTLKFPHL, 3.77 ± 0.073.
With GGWNLDYVMRVYTRRLCNAS the figure was 1.17 ± 0.41; with SELRKVRCNG, 0.813 ± 0.46.
In the case of YTGFWFIFTKGHTE, the amyloid nucleation score result was “inactive”.
Turning to NARLRYGSL, the amyloid nucleation score is -0.101 ± 0.37.
In the case of ATYNCVHRWGIFTSAYGSKC it was -0.653 ± 0.56.
With DGLFGVTTWNSLFLWILKR the figure was -1.1 ± 0.62; with SCNGCSSMRDIFIFHGLLHN, 7.165 ± 0.033.
In the case of FHINAFISTWFSDNFCFCDY it was 1.31 ± 0.22; in that of SCVVLNSYQCTAKRY, 0.284 ± 1.1.
GGGHMFFAGQ returned an amyloid nucleation score of -1.28 ± 1.1.
Substance FLMFQNGCFLNDILVLRNAR gave an amyloid nucleation score of -0.472 ± 0.26.
In the case of FDWNVDDYTFIYDN it was -2.38 ± 0.75; in that of IREEGQFSLAVFSYMKVSPY, 2.95 ± 0.071.
With EEKDQRLISDSWGMF the figure was -0.013 ± 0.56.
In the case of VPWLNGRVVASRKDKTRSSR it was 0.009 ± 0.76; in that of AFLRLRWNSNPVISGTRNRR, 0.777 ± 0.48; in that of YVVGDMTFWS, -0.297 ± 1.1.
Turning to SVVVNPCLLA, the amyloid nucleation score is -0.623 ± 1.
In the case of GQWRKGAYMVC it was 0.477 ± 0.34.
With WWTVKLLMSEVVFRWELEYI the figure was 5.735 ± 0.04; with LVYRGLESQPAMRMWHTSST, -0.207 ± 0.63.
For SNESNFIVICVCMDCIRGGG, the amyloid nucleation score result is “inactive”.
